Measured values reported in US20070107085.

Biological target: T1, Gly-Asp-Asp-Asp-Asp-Lys-β-naphthylamide
T1 chain: GDDDDK

B1: CBM-enterokinase produced transiently in lettuce and purified on cellulose (protein)
chain: MVATAKYGTPVIDGEIDEIWNTTEEIETKAVAMGSLDKNATAKVRVLWDENYLYVLAIVKDPVLNKDNSNPWEQDSVEIFIDENNHKTGYYEDDDAQFRVNYMNEQTFGTGGSPARFKTAVKLIEGGYIVEAAIKWKTIKPTPNTVIGFNIQVNDANEKGQRVGIISWSDPTNNSWRDPSKFGNLRLIK
- Enterokinase activity: 442,7 cps/min/µg
